Here are results for three molecules from paper PMC7939390 (The Journal of Biological Chemistry, 2020).

Series [1] has as its target T1, PBP1b (Escherichia coli, UniProt P02919).
T1 sequence (P02919 1-799 isoform P02919-2): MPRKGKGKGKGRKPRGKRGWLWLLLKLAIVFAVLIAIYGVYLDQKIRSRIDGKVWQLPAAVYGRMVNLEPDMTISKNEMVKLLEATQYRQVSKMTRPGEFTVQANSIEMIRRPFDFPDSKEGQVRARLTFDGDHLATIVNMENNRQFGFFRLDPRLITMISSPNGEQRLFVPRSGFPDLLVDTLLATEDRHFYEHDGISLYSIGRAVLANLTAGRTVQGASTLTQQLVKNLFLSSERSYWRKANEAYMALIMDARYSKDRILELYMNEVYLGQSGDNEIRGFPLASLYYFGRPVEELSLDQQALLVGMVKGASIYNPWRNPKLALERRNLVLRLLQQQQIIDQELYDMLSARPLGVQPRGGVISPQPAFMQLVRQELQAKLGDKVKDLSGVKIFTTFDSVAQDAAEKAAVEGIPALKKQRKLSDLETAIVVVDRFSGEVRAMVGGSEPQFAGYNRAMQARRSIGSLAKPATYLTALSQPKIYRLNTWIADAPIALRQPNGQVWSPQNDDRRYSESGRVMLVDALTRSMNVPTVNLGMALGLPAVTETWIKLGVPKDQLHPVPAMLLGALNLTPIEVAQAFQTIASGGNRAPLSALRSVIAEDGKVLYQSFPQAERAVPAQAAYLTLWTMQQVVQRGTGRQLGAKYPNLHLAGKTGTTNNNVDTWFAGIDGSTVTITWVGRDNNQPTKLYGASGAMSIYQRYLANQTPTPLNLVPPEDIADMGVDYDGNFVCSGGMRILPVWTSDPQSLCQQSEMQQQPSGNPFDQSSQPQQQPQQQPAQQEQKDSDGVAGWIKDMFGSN
To be noted: peptide versus full-length FtsN protein; 10 μM dansyl-lipid II, 30 nM PBP1bγ, pH 7.5, 30 °C.
Description: (§3) The GTase activity assays with dansyl-lipid II as substrate were performed in a medium binding black 96-well microplate (Greiner Bio One) as described ([57]). The samples contained 10 μM dansyl-lipid II, 50 mM HEPES-NaOH, pH 7.5, 200 mM NaCl, 10 mM CaCl2, 0.085% of decyl-PEG, 20% of DMSO, and 1 unit of N-acetylmuramidase of Streptomyces globisporus (Sigma). […] The reactions were initiated by the addition of 30 nM PBP1bγ (100 nM for PBP1a) and monitored by following the fluorescence decrease over 20 min at 30 °C using an Infinite 200 PRO microplate reader (Tecan, Männedorf, Switzerland) with excitation wavelength at 340 nm and emission at 520 nm.

For a further series, the system named is FtsBLQ. To be noted: cited from earlier work. The text has this: In contrast, no significant change in the FA sig ...
In the next series the test system is TPase domain of PBP1b. The note with it: 2.0 mM S2d, 1.2 μM PBP1b, FtsN 2 μM, 50 mM phosphate pH 7.0, 37 °C, 3.2 mM 4,4′-dithiodipyridine, absorbance 330 nm; representative of three independent experiments. As for the experimental part:
The activity of the TPase domain of PBP1b was measured in the presence of S2d (analog of the peptide moiety) as a mimic of donor substrates as previously described ([58], [59]). The assay was performed in a UV-Star 96-well microplate (Greiner Bio One) at 37 °C in the presence of 50 mM phosphate buffer, pH 7.0, 2.0 mM S2d, 3.2 mM 4,4′-dithiodipyridine, and 1.2 μM PBP1b. The absorbance at 330 nm was monitored with an Infinite M200 Pro microplate reader (Tecan, Männedorf, Switzerland). FtsN was used at 2 μM to test its effect on the PBP1b activity.

Another series relates to PBP3. The note with it: cited from earlier work. From the text:
(§1) Bacteria generally have at least one bifunctional (GTase/TPase) PBP of class A and one monofunctional (TPase only) PBP of class B ([2], [13]). E. coli contains three aPBPs: PBP1a, 1b, and 1c, and two bPBPs: PBP2 and PBP3, the latter being involved in cell elongation and division, respectively ([14]). PBP1a and PBP1b are major PG synthases and at least one of them is required for cell viability ([15]).

Series [2] addresses T1, PBP1b. The note with it: compared with the WT protein; cited from earlier work. From the text: The stimulation of PBP1b in vitro by FtsN is well-established ([5], [28]).
The test system of the next series is E. coli. To be noted: residue change W83L; cited from earlier work.
In series [3] the target is T1, PBP1b. To be noted: cited from earlier work.
Description: as §1

Series [4] has as its system E. coli EJ801 (ΔponB-ponA^ts). In words: complementation assay of E. coli EJ801 (ΔponB-ponA^ts). It is filed as cell-based, Escherichia coli. The note with it: 42 °C, 4 h, plasmids carrying ponB or mutants, LB 10 g/liter or low salt 0.5 g/liter comparable. As for the experimental part:
To test the activity of the PBP1b mutants in vivo, we tested their ability to complement E. coli strain EJ801, which lacks PBP1b and has a thermosensitive PBP1a ([33]). EJ801 cells were transformed with the corresponding plasmids and grown in LB at 30 °C with 50 µg/ml kanamycin. The preculture was then diluted in 30 ml of fresh LB ([…] NaCl) or LB with […] NaCl medium to an A600nm value of 0.04 and grown at 30 °C until A600nm = 0.1–0.3, and the absorbance of the culture was monitored for 4 h at 42 °C.

The nature of series [5]: thermal stability of PBP1b^R141A-R397A at 42 °C: Bocillin binding. The note with it: 1 h at 42 °C versus 30 °C, 7 µg protein, Bocillin FL 50 µM 30 min, SDS-PAGE (Fig. S1B). As for the experimental part:
(§2) Figure S1. Stability of the double mutant PBP1bR141A-R397A at 42°C. (A) The purified protein was incubated at 30°C or 42°C for 1 h and its GTase activity was monitored at the same temperature by continuous fluorescence assay using dansyl -lipid II (LII) as substrate. The error bars represent the values as mean ± s.d. of three experiments. (B) after 1h at 30°C or 42°C the protein ( 7 µg) was labelled with Bocillin FL (50 µM) for 30 min at the same temperature and analyzed by SDS-PAGE followed by fluorescence imaging (right) and Coomassie blue staining (left). 1bWT and 1bRR depict PBP1b wild-type and PBP1b double mutant R141A-R397A, respectively. M, Molecular mass marker. […]

Series [6] in a line: thermal stability of PBP1b^R141A-R397A at 42 °C: GTase activity. In kind it is biochemical. The note with it: 1 h at 42 °C versus 30 °C, dansyl-lipid II, mean ± s.d. of three experiments (Fig. S1A). As for the experimental part:
as §2

In the next series the test system is PBP1b^R141A/R397A. In kind it is biochemical, Escherichia coli. The note with it: dansyl-lipid II, continuous fluorescence assay; means ± S.D. of three experiments.
For series [7], the system named is E. coli EJ801 (ΔponB-ponA^ts). In words: microscopy of EJ801 cells, cell morphology and length. It is filed as cell-based, Escherichia coli. Set-up: cell length L: unit not given here. As for the experimental part:
Samples were taken from the complementation cultures (42 °C) at different time (1-h intervals), and the cells were fixed as described ([63]). Photographs were taken with a cooled AxioCam MRm (Zeiss) mounted on a Zeiss Axio Imager. Z1 microscope, and the images were acquired in phase-contrast mode using the AxioVision Rel. 4.5 (Zeiss) software. The cell morphologies analysis were determined using ImageJ software (RRID:SCR_003070) running under plugin ObjectJ (RRID:SCR_019190).

Description for PBP1b^R141A/R397A: The error bars represent the values as means ± S.D. of three experiments.
as §3
activity of the PBP1bWT and PBP1bR141A-R397A was monitored in the presence or the absence of LpoB by
continuous fluorescence assay using dansyl-lipid II (LII) as substrate. The error bars represent the values

B1: FtsN: full-length E. coli cell division protein FtsN (protein)
chain: MAQRDYVRRSQPAPSRRKKSTSRKKQRNLPAVSPAMVAIAAAVLVTFIGGLYFITHHKKEESETLQSQKVTGNGLPPKPEERWRYIKELESRQPGVRAPTEPSAGGEVKTPEQLTPEQRQLLEQMQADMRQQPTQLVEVPWNEQTPEQRQQTLQRQRQAQQLAEQQRLAQQSRTTEQSWQQQTRTSQAAPVQAQPRQSKPASSQQPYQDLLQTPAHTTAQSKPQQAAPVARAADAPKPTAEKKDERRWMVQCGSFRGAEQAETVRAQLAFEGFDSKITTNNGWNRVVIGPVKGKENADSTLNRLKMAGHTNCIRLAAGG
modifications: left off: His, end not stated, kept
As for B1, the “concentration required for stimulation of the GTase activity of PBP1b” value with PBP1b [1] was roughly 1000 nM. The “interaction with FtsBLQ (literature)” value in the series on FtsBLQ was “absence of strong interaction”. Besides, the “effect on TPase activity of PBP1b (S2d hydrolysis)” value with TPase domain of PBP1b is “no effect”. Besides, the “effect on the activity of PBP3 (literature)” value in the series on PBP3 was “no effect on the activity of PBP3”.

B2: FtsN^W83L (protein, UniProt P29131 1-319, looked up, variant W83L)
Cell division protein FtsN: MAQRDYVRRSQPAPSRRKKSTSRKKQRNLPAVSPAMVAIAAAVLVTFIGGLYFITHHKKEESETLQSQKVTGNGLPPKPEERLRYIKELESRQPGVRAPTEPSAGGEVKTPEQLTPEQRQLLEQMQADMRQQPTQLVEVPWNEQTPEQRQQTLQRQRQAQQLAEQQRLAQQSRTTEQSWQQQTRTSQAAPVQAQPRQSKPASSQQPYQDLLQTPAHTTAQSKPQQAAPVARAADAPKPTAEKKDERRWMVQCGSFRGAEQAETVRAQLAFEGFDSKITTNNGWNRVVIGPVKGKENADSTLNRLKMAGHTNCIRLAAGG
Turning to B2, the “interaction with PBP1b (literature)” value with PBP1b [2] is “reduced compared with the WT protein”. Further, the “FtsN activity in vivo (literature)” value in the series with E. coli is “impairs FtsN activity in vivo”. In the series with PBP1b [3], the “stimulation of PBP1b activity in vitro (literature)” value was “less able to stimulate PBP1b activity”; the “suppression of FtsBLQ-mediated inhibition of PBP1b GTase activity (literature)” value is “less able to stimulate PBP1b activity and to suppress FtsBLQ-mediated inhibition of PBP1b GTase activity in vitro”.

B3: PBP1b^R141A/R397A (protein)
chain: MAGNDREPIGRKGKPTRPVKQKVSRRRYEDDDDYDDYDDYEDEEPMPRKGKGKGKGRKPRGKRGWLWLLLKLAIVFAVLIAIYGVYLDQKIRSRIDGKVWQLPAAVYGRMVNLEPDMTISKNEMVKLLEATQYRQVSKMTAPGEFTVQANSIEMIRRPFDFPDSKEGQVRARLTFDGDHLATIVNMENNRQFGFFRLDPRLITMISSPNGEQRLFVPRSGFPDLLVDTLLATEDRHFYEHDGISLYSIGRAVLANLTAGRTVQGASTLTQQLVKNLFLSSERSYWRKANEAYMALIMDARYSKDRILELYMNEVYLGQSGDNEIRGFPLASLYYFGRPVEELSLDQQALLVGMVKGASIYNPWRNPKLALERRNLVLRLLQQQQIIDQELYDMLSAAPLGVQPRGGVISPQPAFMQLVRQELQAKLGDKVKDLSGVKIFTTFDSVAQDAAEKAAVEGIPALKKQRKLSDLETAIVVVDRFSGEVRAMVGGSEPQFAGYNRAMQARRSIGSLAKPATYLTALSQPKIYRLNTWIADAPIALRQPNGQVWSPQNDDRRYSESGRVMLVDALTRSMNVPTVNLGMALGLPAVTETWIKLGVPKDQLHPVPAMLLGALNLTPIEVAQAFQTIASGGNRAPLSALRSVIAEDGKVLYQSFPQAERAVPAQAAYLTLWTMQQVVQRGTGRQLGAKYPNLHLAGKTGTTNNNVDTWFAGIDGSTVTITWVGRDNNQPTKLYGASGAMSIYQRYLANQTPTPLNLVPPEDIADMGVDYDGNFVCSGGMRILPVWTSDPQSLCQQSEMQQQPSGNPFDQSSQPQQQPQQQPAQQEQKDSDGVAGWIKDMFGSN
Take B3: the “restoration of growth of EJ801 at the nonpermissive temperature” value in series [4] is “unable to rescue E. coli EJ801 at 42 °C”. Also, the “Bocillin-binding activity after incubation at 42 °C” value in [5] was “not affected”. Besides, the “GTase activity after incubation at 42 °C” value in series [6] is given as “not affected”. Besides, in the series on PBP1b^R141A/R397A, the “GTase activity of mutant compared with WT protein” value is “minor or no difference in the GTase activity compared with the WT protein”. Besides, the “cell length L” value in series [7] (EJ801 after 1 h at 42 °C, n = 250, phase contrast, ImageJ/ObjectJ) amounted to 6.14 ± 1.84. For the same molecule, in series [7] (EJ801 at 42 °C (double mutant: after 1 h)), the cell phenotype result is recorded as “mild elongated phenotype”.
